Source: patent US20260132194A1 (XBIOTECH, published 2026)

Biological target: T1, recombinant human interleukin 1 alpha (IL-1α) (human, UniProt P01583 113-271)
T1 sequence (looked up): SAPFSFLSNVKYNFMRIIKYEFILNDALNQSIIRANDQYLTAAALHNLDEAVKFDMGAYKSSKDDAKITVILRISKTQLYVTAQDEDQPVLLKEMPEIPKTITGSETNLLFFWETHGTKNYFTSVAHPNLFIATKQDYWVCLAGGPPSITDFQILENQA
Assay: cell-based or functional assay

B1: XIA14 human monoclonal antibody (antibody, V domains shown)
VH: QVQLVQSGAEVKKPGSSVKVSCKASGGRFTNYAILWVRQAPGQGLQWLGGIIPIFDETDHAQDFQDRLTITVDESMTTAYMELSSLRPEDTAIYYCATGSNSYYGLYWGQGTLVTVSS
VL: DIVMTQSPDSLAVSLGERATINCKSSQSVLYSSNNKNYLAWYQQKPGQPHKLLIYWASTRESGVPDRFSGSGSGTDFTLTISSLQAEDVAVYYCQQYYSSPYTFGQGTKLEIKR
HUVEC-based potency assay IC50 (ICAM-1 expression by flow cytometry): 5 ng/mL
